# Measured values taken from the supplement of paper PMC10567573.
# B1: SNAP91 (parent)
# chain: FGGSFMAPSPSPVTPAQNNLLQPN
# Variants of: B1
# Assay: protein stability index of a GFP-peptide fusion (GPS, HEK-293T) (PSI 1-6); higher = more stable
# Conditions: c terminus: a fixed tail appended
# 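Further: lentivirally expressed fusions sorted by FACS into six bins by GFP to DsRed ratio, PSI derived from sequencing read proportions per bin multiplied by bin number.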
row,Variant,protein stability index
1,IGGSFMAPSPSPVTPAQNNLLQPN [F1I],3.99
2,NGGSFMAPSPSPVTPAQNNLLQPN [F1N],3.94
3,FGGSFMAPSPSPVTCAQNNLLQPN [P15C],4.08
4,FGGSFMAPSPSPVTRAQNNLLQPN [P15R],2.4
5,FGGSFMAPSPSPVTWAQNNLLQPN [P15W],1.6
6,FGGSFMAPSPSPVTQAQNNLLQPN [P15Q],2.27
7,FGGSFMAPSPSPVTGAQNNLLQPN [P15G],2.3
8,FGGSFMAPSPSPVTYAQNNLLQPN [P15Y],2.91
9,FGGSFMAPSPSPVTIAQNNLLQPN [P15I],2.65
10,FGGSFMAPSPSPVTAAQNNLLQPN [P15A],1.86
11,FGGSFMAPSPSPVTEAQNNLLQPN [P15E],1.93
12,FGGSFMAPSPSPVTLAQNNLLQPN [P15L],1.95
13,FGGSFMAPSPSPVTKAQNNLLQPN [P15K],1.83
14,FGGSFMAPSPSPVTDAQNNLLQPN [P15D],2.67
15,FGGSFMAPSPSPVTMAQNNLLQPN [P15M],3.65
16,FGGSFMAPSPSPVTHAQNNLLQPN [P15H],2.27
17,FGGSFMAPSPSPVTNAQNNLLQPN [P15N],1.79
18,FGGSFMAPSPSPVTTAQNNLLQPN [P15T],2.01
19,FGGSFMAPSPSPVTSAQNNLLQPN [P15S],2.19
20,FGGSFMAPSPSPVTVAQNNLLQPN [P15V],2.12
21,FGGSFMAPSPSPVTFAQNNLLQPN [P15F],2.84
22,FRGSFMAPSPSPVTPAQNNLLQPN [G2R],3.23
23,FYGSFMAPSPSPVTPAQNNLLQPN [G2Y],2.53
24,FGGSFMEPSPSPVTPAQNNLLQPN [A7E],2.06

row,Variant,protein stability index
1,FGGSFMHPSPSPVTPAQNNLLQPN [A7H],3
2,FGGSFMLPSPSPVTPAQNNLLQPN [A7L],1.87
3,FGGSFMDPSPSPVTPAQNNLLQPN [A7D],1.91
4,FGGSFMQPSPSPVTPAQNNLLQPN [A7Q],2.59
5,FGGSFMVPSPSPVTPAQNNLLQPN [A7V],2.54
6,FGGSFMANSPSPVTPAQNNLLQPN [P8N],2.42
7,FGGSFMAASPSPVTPAQNNLLQPN [P8A],1.54
8,FGGSFMAVSPSPVTPAQNNLLQPN [P8V],2.41
9,FGGSFMAYSPSPVTPAQNNLLQPN [P8Y],3.9
10,FGGSFMAWSPSPVTPAQNNLLQPN [P8W],3.12
11,FGGSFMATSPSPVTPAQNNLLQPN [P8T],3.12
12,FGGSFMAHSPSPVTPAQNNLLQPN [P8H],2
13,FGGSFMALSPSPVTPAQNNLLQPN [P8L],3.22
14,FGGSFMADSPSPVTPAQNNLLQPN [P8D],2.25
15,FGGSFMAFSPSPVTPAQNNLLQPN [P8F],2.53
16,FGGSFMAQSPSPVTPAQNNLLQPN [P8Q],2.92
17,FGGSFMAGSPSPVTPAQNNLLQPN [P8G],2.67
18,FGGSFMAMSPSPVTPAQNNLLQPN [P8M],4.32
19,FGGSFMARSPSPVTPAQNNLLQPN [P8R],1.85
20,FGGSFMASSPSPVTPAQNNLLQPN [P8S],2.89
21,FGGSFMACSPSPVTPAQNNLLQPN [P8C],1.64
22,FGGSFMAESPSPVTPAQNNLLQPN [P8E],2.24
23,FGGSFVAPSPSPVTPAQNNLLQPN [M6V],2.08
24,FGGSFRAPSPSPVTPAQNNLLQPN [M6R],2.24

row,Variant,protein stability index
1,FGGSFMAPSPSPVVPAQNNLLQPN [T14V],2.2
2,FGGSFMAPSPSPVKPAQNNLLQPN [T14K],2.84
3,FGGSFMAPSPSPVWPAQNNLLQPN [T14W],1.95
4,FGGSFMAPSPSPVDPAQNNLLQPN [T14D],1.29
5,FGGSFMAPSPSPVEPAQNNLLQPN [T14E],1.31
6,FGGSFMAPSPSPVGPAQNNLLQPN [T14G],2.08
7,FGGSFMAPSPSPVFPAQNNLLQPN [T14F],1.79
8,FGGSFMAPSPSPVMPAQNNLLQPN [T14M],2.4
9,FGGSFMAPSPSPVQPAQNNLLQPN [T14Q],2.43
10,FGGSFMAPSPSPVNPAQNNLLQPN [T14N],1.89
11,FGGSFMAPSPSPVIPAQNNLLQPN [T14I],1.7
12,FGGSFMAPSPSPVCPAQNNLLQPN [T14C],4.16
13,FGGSFMAPSPSPVRPAQNNLLQPN [T14R],1.54
14,FGGSFMAPSPSPVLPAQNNLLQPN [T14L],2.13
15,FGGSFMAPQPSPVTPAQNNLLQPN [S9Q],1.43
16,FGGSFMAPVPSPVTPAQNNLLQPN [S9V],1.62
17,FGGSFMAPKPSPVTPAQNNLLQPN [S9K],1.76
18,FGGSFMAPWPSPVTPAQNNLLQPN [S9W],3.59
19,FGGSFMAPMPSPVTPAQNNLLQPN [S9M],2.31
20,FGGSFMAPRPSPVTPAQNNLLQPN [S9R],1.89
21,FGGSFMAPEPSPVTPAQNNLLQPN [S9E],1.89
22,FGTSFMAPSPSPVTPAQNNLLQPN [G3T],2.44
23,FGVSFMAPSPSPVTPAQNNLLQPN [G3V],2.37
24,FGDSFMAPSPSPVTPAQNNLLQPN [G3D],2.7

row,Variant,protein stability index
1,FGNSFMAPSPSPVTPAQNNLLQPN [G3N],3.1
2,FGGSFMAPSPSFVTPAQNNLLQPN [P12F],1.62
3,FGGSFMAPSPSVVTPAQNNLLQPN [P12V],1.73
4,FGGSFMAPSPSRVTPAQNNLLQPN [P12R],2.17
5,FGGSFMAPSPSNVTPAQNNLLQPN [P12N],2.31
6,FGGSFMAPSPSIVTPAQNNLLQPN [P12I],1.94
7,FGGSFMAPSPSYVTPAQNNLLQPN [P12Y],2.09
8,FGGSFMAPSPSQVTPAQNNLLQPN [P12Q],2.21
9,FGGSFMAPSPSMVTPAQNNLLQPN [P12M],2.62
10,FGGSFMAPSPSHVTPAQNNLLQPN [P12H],2.53
11,FGGSFMAPSPSGVTPAQNNLLQPN [P12G],1.72
12,FGGSFMAPSPSKVTPAQNNLLQPN [P12K],1.47
13,FGGSFMAPSPSAVTPAQNNLLQPN [P12A],2
14,FGGSFMAPSPSCVTPAQNNLLQPN [P12C],2.72
15,FGGSFMAPSPSDVTPAQNNLLQPN [P12D],1.8
16,FGGSFMAPSPSTVTPAQNNLLQPN [P12T],1.01
17,FGGSFMAPSPSSVTPAQNNLLQPN [P12S],1.27
18,FGGSFMAPSPSWVTPAQNNLLQPN [P12W],1.83
19,FGGSFMAPSPSLVTPAQNNLLQPN [P12L],1.61
20,FGGSFMAPSPSEVTPAQNNLLQPN [P12E],1.77
21,FGGSFMAPSWSPVTPAQNNLLQPN [P10W],2.51
22,FGGSFMAPSMSPVTPAQNNLLQPN [P10M],3.19
